Data on one protein can be found in paper doi:10.1101/2023.07.27.550818 (bioRxiv, 2023).

The data set concerns the molecule itself. Description: crystal structure.

B1: PcaR (natural protein, P. putida, UniProt Q52154 1-291, looked up)
chain: MSDETLVNDPVNPEPARPASAAMAPPIVASPAKRIQAFTGDPDFMTSLARGLAVIQAFQERKRHLTIAQISHRTEIPRAAVRRCLHTLIKLGYATSDGRTYSLLPKVLTLGHAYLSSTPLAISAQPYLDRISDQLHEAANMATLEGDDILYIARSATVERLISVDLSVGGRLPAYCTSMGRILLAAMDDTSLREYLGRADLKARTSRTLHDPESLFACIQQVRAQGWCVVDQELEQGLRSIAVPIYDASGQVLAALNVSTHVGRVTRSELEQRFLPILLAASRDLCHQLFG
With B1, the binding result is on record as “binds”.
